The values that follow come from the Immune Epitope Database (IEDB).

Bounds are passed on as bounds.

Targets include HLA-A*02:03; HLA-A*02:01; HLA-A*02:06; HLA-A*02:02; HLA-A*68:02.
Assay in all cases: IEDB peptide-MHC binding, cellular MHC/competitive/fluorescence; ≥ and ≤ were set here for values at or beyond the usual limits of such assays
The mark [1] stands for this setting: source organism: Vaccinia virus WR.
[2] abbreviates: source organism: Influenza A virus.

Broadly, the IC50 is the concentration needed to halve the response being measured. A higher IC50 goes with lower potency. Consider LTPFEKEFT, for which the 50% inhibitory concentration (IC50) with HLA-A*02:03 (setting [1]) is 20.9 µM; in the experiment with HLA-A*02:01 (setting [1]), 44.5 µM; with HLA-A*02:06 (setting [1]), at least 70 µM; with HLA-A*02:02 (setting [1]) it was 16.8 µM; with HLA-A*68:02 (setting [1]) it was at least 70 µM.
In the case of LVSKHWELT, the IC50 with HLA-A*02:03 (setting [1]) was 14.9 µM; with HLA-A*02:01 (setting [1]), at least 70 µM; with HLA-A*02:06 (setting [1]), at least 70 µM; with HLA-A*02:02 (setting [1]), 12.2 µM; with HLA-A*68:02 (setting [1]), at least 70 µM.
Turning to MQLKIDKLT, the IC50 was 60.1 µM in the experiment with HLA-A*02:03 (setting [1]); 26.6 µM with HLA-A*02:01 (setting [1]); 59.7 µM with HLA-A*02:06 (setting [1]); 7.67 µM with HLA-A*02:02 (setting [1]); at least 70 µM with HLA-A*68:02 (setting [1]).
On to NILGGVLHT, for which the IC50 is 20.6 µM in the experiment with HLA-A*02:03 (setting [1]); 41.7 µM in the experiment with HLA-A*02:01 (setting [1]); 9.97 µM with HLA-A*02:06 (setting [1]); at least 70 µM in the experiment with HLA-A*02:02 (setting [1]); at least 70 µM in the experiment with HLA-A*68:02 (setting [1]).
Consider NINFNNSSII, for which the IC50 came to 13.3 µM with HLA-A*02:03 (setting [1]); 32.7 µM with HLA-A*02:01 (setting [1]); 30.1 µM with HLA-A*02:06 (setting [1]); 6.64 µM with HLA-A*02:02 (setting [1]); 6.97 µM with HLA-A*68:02 (setting [1]).
For NLCKYLRGHT the same measures were 8.04 µM, 37.9 µM, at least 70 µM, 39.6 µM and 12.3 µM.
On to NLPFDKTTIMA, for which the IC50 in the experiment with HLA-A*02:03 (setting [2]) is 8.43 µM; with HLA-A*02:01 (setting [2]), 25 µM; in the experiment with HLA-A*02:06 (setting [2]) it was at least 70 µM; with HLA-A*02:02 (setting [2]), 7.7 µM; in the experiment with HLA-A*68:02 (setting [2]) it was 11 µM.
NMDKVSAQNI: the IC50 with HLA-A*02:03 (setting [1]) was 16.8 µM; with HLA-A*02:01 (setting [1]), 16 µM; with HLA-A*02:06 (setting [1]) it was at least 70 µM; with HLA-A*02:02 (setting [1]), 8.02 µM; in the experiment with HLA-A*68:02 (setting [1]), 37.3 µM.
Take NTTIEKEI: the 50% inhibitory concentration (IC50) in the experiment with HLA-A*02:03 (setting [2]) is at least 70 µM; in the experiment with HLA-A*02:01 (setting [2]), 50.7 µM; in the experiment with HLA-A*02:06 (setting [2]), at least 70 µM; in the experiment with HLA-A*02:02 (setting [2]), at least 70 µM; in the experiment with HLA-A*68:02 (setting [2]), at least 70 µM.
Regarding NVDVGCLLT, the half-maximal inhibitory concentration (IC50) was 14 µM in the experiment with HLA-A*02:03 (setting [1]); 47.3 µM with HLA-A*02:01 (setting [1]); 64.9 µM in the experiment with HLA-A*02:06 (setting [1]); 9.85 µM with HLA-A*02:02 (setting [1]); at least 70 µM with HLA-A*68:02 (setting [1]).
For NVKDYSIV, the half-inhibitory concentration (IC50) with HLA-A*02:03 (setting [2]) is 6.53 µM; with HLA-A*02:01 (setting [2]), at least 70 µM; with HLA-A*02:06 (setting [2]) it was at least 70 µM; in the experiment with HLA-A*02:02 (setting [2]), at least 70 µM; with HLA-A*68:02 (setting [2]), 11.3 µM.
As to NVRGSGMRILV, the half-inhibitory concentration (IC50) is 46.1 µM with HLA-A*02:03 (setting [2]); 20.8 µM in the experiment with HLA-A*02:01 (setting [2]); 54.7 µM in the experiment with HLA-A*02:06 (setting [2]); at least 70 µM in the experiment with HLA-A*02:02 (setting [2]); 11.2 µM with HLA-A*68:02 (setting [2]).
The corresponding values for PACVYGLA are at least 70 µM, 68.7 µM, at least 70 µM, at least 70 µM and 52.3 µM.
For PACVYGPA the same measures were at least 70 µM, at least 70 µM, at least 70 µM, 14.2 µM and at least 70 µM.
The corresponding values for PAEMLANI are at least 70 µM, at least 70 µM, at least 70 µM, at least 70 µM and at least 70 µM.
Turning to PAEMLASI, the IC50 with HLA-A*02:03 (setting [2]), with HLA-A*02:01 (setting [2]), with HLA-A*02:06 (setting [2]), with HLA-A*02:02 (setting [2]) and with HLA-A*68:02 (setting [2]) was at least 70 µM each time.
As to PAHKSQLV, the IC50 in the experiment with HLA-A*02:03 (setting [2]), with HLA-A*02:01 (setting [2]), in the experiment with HLA-A*02:06 (setting [2]), in the experiment with HLA-A*02:02 (setting [2]) and with HLA-A*68:02 (setting [2]) was at least 70 µM in each case.
PAHLINKLL: the IC50 was found to be 6.31 µM with HLA-A*02:03 (setting [1]); 11.3 µM with HLA-A*02:01 (setting [1]); 42.5 µM in the experiment with HLA-A*02:06 (setting [1]); 6.69 µM in the experiment with HLA-A*02:02 (setting [1]); 11.2 µM with HLA-A*68:02 (setting [1]).
The corresponding values for PAMSTYSDI are 20.6 µM, 16.1 µM, at least 70 µM, 18.3 µM and 69.8 µM.
The corresponding values for PANINDKQIM are 43.1 µM, 32.3 µM, 10.9 µM, 49.5 µM and at least 70 µM.
Take PLHIVCSKTV: the IC50 turned out to be 5.27 µM with HLA-A*02:03 (setting [1]); 21.3 µM with HLA-A*02:01 (setting [1]); 27 µM with HLA-A*02:06 (setting [1]); 34.5 µM with HLA-A*02:02 (setting [1]); 9.35 µM with HLA-A*68:02 (setting [1]).
As to PLIISTDQDT, the IC50 with HLA-A*02:03 (setting [1]) is 35.6 µM; with HLA-A*02:01 (setting [1]) it was 52.5 µM; with HLA-A*02:06 (setting [1]) it was 47.4 µM; with HLA-A*02:02 (setting [1]) it was 45 µM; with HLA-A*68:02 (setting [1]) it was at least 70 µM.
Take PLIRHENRMVL: the IC50 with HLA-A*02:03 (setting [2]) is 16.9 µM; with HLA-A*02:01 (setting [2]), 28.8 µM; with HLA-A*02:06 (setting [2]), at least 70 µM; in the experiment with HLA-A*02:02 (setting [2]), at least 70 µM; in the experiment with HLA-A*68:02 (setting [2]), at least 70 µM.
Take PLKDVERLQM: the IC50 with HLA-A*02:03 (setting [1]) is 44 µM; with HLA-A*02:01 (setting [1]), 45.5 µM; in the experiment with HLA-A*02:06 (setting [1]), 37.4 µM; in the experiment with HLA-A*02:02 (setting [1]) it was 6.16 µM; with HLA-A*68:02 (setting [1]), at least 70 µM.
Regarding PLPSLEYGA, the IC50 with HLA-A*02:03 (setting [1]) is 18.9 µM; with HLA-A*02:01 (setting [1]) it was 14.7 µM; with HLA-A*02:06 (setting [1]), 42.5 µM; with HLA-A*02:02 (setting [1]), 11.4 µM; in the experiment with HLA-A*68:02 (setting [1]), 30.9 µM.
The corresponding values for PLSPDTCLLA are 9.31 µM, 6.97 µM, 19.9 µM, 11.2 µM and 15.2 µM.
With PLTGNNTITT, the half-inhibitory concentration (IC50) in the experiment with HLA-A*02:03 (setting [1]) was 29.5 µM; with HLA-A*02:01 (setting [1]), at least 70 µM; with HLA-A*02:06 (setting [1]) it was at least 70 µM; in the experiment with HLA-A*02:02 (setting [1]), 7.67 µM; with HLA-A*68:02 (setting [1]), 49.3 µM.
Take PMIIGEPIIV: the IC50 was 8.84 µM in the experiment with HLA-A*02:03 (setting [1]); 26.3 µM with HLA-A*02:01 (setting [1]); at least 70 µM in the experiment with HLA-A*02:06 (setting [1]); at least 70 µM with HLA-A*02:02 (setting [1]); at least 70 µM with HLA-A*68:02 (setting [1]).
For PTDMLKLFT, the IC50 was 47 µM in the experiment with HLA-A*02:03 (setting [1]); at least 70 µM in the experiment with HLA-A*02:01 (setting [1]); 69.8 µM in the experiment with HLA-A*02:06 (setting [1]); 29.1 µM in the experiment with HLA-A*02:02 (setting [1]); at least 70 µM with HLA-A*68:02 (setting [1]).
Consider PTEMVDVSM, for which the IC50 with HLA-A*02:03 (setting [1]) is 41.3 µM; with HLA-A*02:01 (setting [1]), 47.4 µM; with HLA-A*02:06 (setting [1]), 40.2 µM; with HLA-A*02:02 (setting [1]), 10.6 µM; in the experiment with HLA-A*68:02 (setting [1]) it was 52.2 µM.
For PTEMVDVSMM the same measures were at least 70 µM, 41.9 µM, 12.1 µM, 11.5 µM and at least 70 µM.
For PTIEDDKIVT the same measures were 20.6 µM, at least 70 µM, at least 70 µM, 13.8 µM and at least 70 µM.
The corresponding values for PTLFGRGVI are 6.73 µM, at least 70 µM, 64.9 µM, 30.3 µM and at least 70 µM.
In the case of PTNDIPSLFI, the 50% inhibitory concentration (IC50) was 61.8 µM with HLA-A*02:03 (setting [1]); 18.4 µM with HLA-A*02:01 (setting [1]); 14.8 µM with HLA-A*02:06 (setting [1]); 11 µM with HLA-A*02:02 (setting [1]); 24.8 µM with HLA-A*68:02 (setting [1]).
As for PTPKKMNIVT, the concentration for half-maximal inhibition (IC50) with HLA-A*02:03 (setting [1]) was 55.7 µM; in the experiment with HLA-A*02:01 (setting [1]), at least 70 µM; with HLA-A*02:06 (setting [1]) it was at least 70 µM; in the experiment with HLA-A*02:02 (setting [1]), 65.8 µM; with HLA-A*68:02 (setting [1]), at least 70 µM.
For PTRTWKVLSI, the half-inhibitory concentration (IC50) with HLA-A*02:03 (setting [1]) was 15.1 µM; with HLA-A*02:01 (setting [1]) it was at least 70 µM; with HLA-A*02:06 (setting [1]), at least 70 µM; in the experiment with HLA-A*02:02 (setting [1]), 41.9 µM; in the experiment with HLA-A*68:02 (setting [1]), 42 µM.
